Columns and labels:
[1] = target: Microtubule polymerized from MAP-free bovine brain tubulin (GMPCPP- and taxol-stabilized, with biotinylated ends) (bovine) (UniProt Q6B856); test: optical trapping (single-filament interaction forces); pure CB; microtubule turned by 45°, IF moved vertically; 49 filament pairs
[2] = target: Microtubule polymerized from MAP-free bovine brain tubulin (GMPCPP- and taxol-stabilized, with biotinylated ends) (bovine) (UniProt Q6B856); test: optical trapping (single-filament interaction forces); as a1 (perpendicular, vertical movement) in CB with 0.1% (w/v) Triton-X 100; 38 filament pairs
[3] = target: Microtubule polymerized from MAP-free bovine brain tubulin (GMPCPP- and taxol-stabilized, with biotinylated ends) (bovine) (UniProt Q6B856); test: optical trapping (single-filament interaction forces); one vimentin IF and one microtubule each held between a pair of streptavidin beads; crossed perpendicularly, IF moved vertically (y-direction) at 0.55 μm/s; pure CB (1 mM EGTA, 2 mM MgCl2, 25 mM PIPES, 60 mM KCl, 2 mM sodium phosphate, pH 7.5, 0.01 mM taxol, oxygen scavenger, 20 mM DTT); 57 filament pairs
[4] = target: Microtubule polymerized from MAP-free bovine brain tubulin (GMPCPP- and taxol-stabilized, with biotinylated ends) (bovine) (UniProt Q6B856); test: optical trapping (single-filament interaction forces); as a1 (perpendicular, vertical movement) in CB with a total of 20 mM magnesium (18 mM MgCl2 added); 36 filament pairs
[5] = target: Microtubule polymerized from MAP-free bovine brain tubulin (GMPCPP- and taxol-stabilized, with biotinylated ends) (bovine) (UniProt Q6B856); test: optical trapping (single-filament interaction forces); pure CB; perpendicular configuration, IF moved horizontally (x-direction) along the microtubule at 0.55 μm/s; 43 filament pairs

UniProt Q6B856, sequence (Q6B856 whole entry, looked up): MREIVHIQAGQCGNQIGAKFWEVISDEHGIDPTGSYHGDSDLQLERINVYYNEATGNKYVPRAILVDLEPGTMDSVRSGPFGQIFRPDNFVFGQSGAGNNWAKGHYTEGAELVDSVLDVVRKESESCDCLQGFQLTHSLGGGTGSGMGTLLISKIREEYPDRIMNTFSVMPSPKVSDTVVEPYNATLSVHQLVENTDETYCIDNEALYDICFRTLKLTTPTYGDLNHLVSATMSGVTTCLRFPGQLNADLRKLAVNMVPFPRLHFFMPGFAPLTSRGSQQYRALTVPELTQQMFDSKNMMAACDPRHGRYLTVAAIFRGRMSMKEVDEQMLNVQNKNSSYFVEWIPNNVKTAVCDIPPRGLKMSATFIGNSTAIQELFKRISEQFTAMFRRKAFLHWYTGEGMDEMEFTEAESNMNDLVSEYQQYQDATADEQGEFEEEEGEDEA

effective binding rate r b,eff (interactions larger than 1 pN per unbound time) [1]: 0.016 s⁻¹
effective binding rate r b,eff (interactions larger than 1 pN per unbound time) [2]: 0.0056 s⁻¹
effective binding rate r b,eff (interactions larger than 1 pN per unbound time) [3]: 0.011 s⁻¹
probability of binding p IF-MT per pair of vimentin unit-length filament and tubulin dimer ([3]; scale: per pair of vimentin unit-length filament and tubulin dimer): 0.00061
effective binding rate r b,eff (interactions larger than 1 pN per unbound time) [4]: 0.013 s⁻¹
effective binding rate r b,eff (interactions larger than 1 pN per unbound time) [5]: 0.024 s⁻¹
Substance: Vimentin intermediate filament, assembled from vimentin C328N with two additional glycines and one additional cysteine at the C-terminus (natural protein)
